The text below walks through data of paper PMC10682464, “The structural basis for light acclimation in phycobilisome light harvesting systems systems in Porphyridium purpureum” (Communications Biology, 2023).

Series [1] concerns the target T1, phycoerythrin (PE) β subunit of the Porphyridium purpureum phycobilisome (Porphyridium purpureum (endogenous in …, UniProt P11393 1-177, covalently attached open tetrapyrrole chromophores (sites not given))).
T1 construct: phycoerythrin beta subunit, Porphyridium purpureum (UTEX 2757); chain of the ML-PBS model PDB 7EZX, which was built from LL-PBS PDB 6KGX; also called β^PE; PE subunit
The experiment in a line: cryo-EM structure; intact ML-PBS isolated from P. purpureum on a sucrose gradient; 1.5 mg/mL, diluted on the grid with 50 mM Tris pH 8.0, 16 °C; overall resolution 3.04 Å, C2 symmetry. Conditions: both partners purified.

Series [2] deals with the molecule itself. The series is described as above.

B1: phycoerythrin (PE) α subunit of the Porphyridium purpureum phycobilisome (natural protein, UniProt P11392 1-164, looked up)
chain: MKSVITTVVSAADAAGRFPSNSDLESIQGNIQRSAARLEAAEKLAGNHEAVVKEAGDACFAKYAYLKNPGEAGENQEKINKCYRDVDHYMRLVNYDLVVGGTGPLDEWGIAGAREVYRTLNLPTSAYVASIAYTRDRLCVPRDMSAQAGVEFSAYLDYLINALS
modifications: covalently attached open tetrapyrrole chromophores (sites not given)
notes: phycoerythrin alpha subunit, Porphyridium purpureum (UTEX 2757); chain of the ML-PBS model PDB 7EZX, which was built from LL-PBS PDB 6KGX; also called α^PE; PE subunit
As to B1, the binding result in series [1] was “binds”.

B2: αβ^PE monomer (phycoerythrin α and β subunits) of the Porphyridium purpureum phycobilisome (complex)
chain 1: B1 chain
chain 2: MLDAFSRVVVNSDAKAAYVGGSDLQALKSFIADGNKRLDAVNSIVSNASCMVSDAVSGMICENPGLISPGGNCYTNRRMAACLRDGEIILRYVSYALLAGDASVLEDRCLNGLKETYIALGVPTNSSIRAVSIMKAQAVAFITNTATERKMSFAAGDCTSLASEVASYFDRVGAAIS
modifications: covalently attached open tetrapyrrole chromophores (sites not given) | covalently attached open tetrapyrrole chromophores (sites not given)
notes: phycoerythrin alpha subunit, Porphyridium purpureum; as the chain of m1; phycoerythrin beta subunit, Porphyridium purpureum; as the chain of m2; The introduction says that (αβ) monomers assemble into trimers and hexamers; also called (αβ) monomer
For the molecule B2, the “stoichiometry N” value in series [2] came to 6.
